B1: Hammerhead Ribozyme (parent)
chain: ACCGGAUGUGCUUUCCGGUCUGAUGAGUCCGUGAGGACGAAACAG

Variants of: B1
Test: self-cleavage, relative activity (ratio to wild type); higher = more cleavage; co-transcriptional

Row | Variant | self-cleavage
1 | A1U U24C | 0.726
2 | A1U U24G | 0.508
3 | A1U U28A | 0.3
4 | A1U U28C | 0.5
5 | A1U U28G | 0.436
6 | A1U U32A | 0.692
7 | A1U U32C | 0.436
8 | A1U U32G | 0.465
9 | C2A | 0.866
10 | C2A A6C | 0.306
11 | C2A A6G | 0.426
12 | C2A A6U | 0.331
13 | C2A A23C | 0.297
14 | C2A A23G | 0.334
15 | C2A A23U | 0.33
16 | C2A A26C | 0.328
17 | C2A A26G | 0.293
18 | C2A A26U | 0.374
19 | C2A A34C | 0.387
20 | C2A A34G | 0.48
21 | C2A A34U | 0.402
22 | C2A A37C | 0.376
23 | C2A A37G | 0.427
24 | C2A A37U | 0.368

Row | Variant | self-cleavage
25 | C2A A40C | 0.353
26 | C2A A40G | 0.324
27 | C2A A40U | 0.35
28 | C2A A41C | 0.366
29 | C2A A41G | 0.294
30 | C2A A41U | 0.346
31 | C2A A42C | 0.355
32 | C2A A42G | 0.344
33 | C2A A42U | 0.332
34 | C2A A44C | 0.425
35 | C2A A44G | 0.989
36 | C2A A44U | 0.375
37 | C2A C3A | 0.476
38 | C2A C3G | 0.277
39 | C2A C3U | 0.312
40 | C2A C11A | 0.958
41 | C2A C11G | 0.828
42 | C2A C11U | 0.431
43 | C2A C15A | 0.378
44 | C2A C15G | 0.319
45 | C2A C15U | 0.466
46 | C2A C16A | 0.365
47 | C2A C16G | 0.363
48 | C2A C16U | 0.554

Row | Variant | self-cleavage
49 | C2A C20A | 0.292
50 | C2A C20G | 0.288
51 | C2A C20U | 0.372
52 | C2A C29A | 0.376
53 | C2A C29G | 0.378
54 | C2A C29U | 0.584
55 | C2A C30A | 0.473
56 | C2A C30G | 0.333
57 | C2A C30U | 0.847
58 | C2A C38A | 0.381
59 | C2A C38G | 0.373
60 | C2A C38U | 0.606
61 | C2A C43A | 0.333
62 | C2A C43G | 0.338
63 | C2A C43U | 0.308
64 | C2A G4A | 0.322
65 | C2A G4C | 0.346
66 | C2A G4U | 1.77
67 | C2A G5A | 0.37
68 | C2A G5C | 0.288
69 | C2A G5U | 0.319
70 | C2A G8A | 0.587
71 | C2A G8C | 0.559
72 | C2A G8U | 0.794

Row | Variant | self-cleavage
73 | C2A G10A | 0.934
74 | C2A G10C | 0.662
75 | C2A G10U | 0.88
76 | C2A G17A | 0.364
77 | C2A G17C | 0.359
78 | C2A G17U | 0.365
79 | C2A G18A | 0.883
80 | C2A G18C | 0.922
81 | C2A G18U | 1.21
82 | C2A G22A | 0.364
83 | C2A G22C | 0.353
84 | C2A G22U | 0.34
85 | C2A G25A | 0.31
86 | C2A G25C | 0.359
87 | C2A G25U | 0.323
88 | C2A G27A | 0.438
89 | C2A G27C | 0.339
90 | C2A G27U | 0.32
91 | C2A G31A | 0.969
92 | C2A G31C | 0.66
93 | C2A G31U | 0.828
94 | C2A G33A | 0.958
95 | C2A G33C | 0.888
96 | C2A G33U | 0.858

Row | Variant | self-cleavage
97 | C2A G35A | 0.402
98 | C2A G35C | 0.429
99 | C2A G35U | 0.457
100 | C2A G36A | 0.353
101 | C2A G36C | 0.307
102 | C2A G36U | 0.341
103 | C2A G39A | 0.319
104 | C2A G39C | 0.305
105 | C2A G39U | 0.327
106 | C2A G45A | 0.393
107 | C2A G45C | 0.42
108 | C2A G45U | 0.417
109 | C2A U7A | 0.457
110 | C2A U7C | 0.382
111 | C2A U7G | 0.518
112 | C2A U9A | 0.563
113 | C2A U9C | 0.695
114 | C2A U9G | 0.44
115 | C2A U12A | 0.62
116 | C2A U12C | 0.5
117 | C2A U12G | 0.736
118 | C2A U13A | 1.08
119 | C2A U13C | 1.05
120 | C2A U13G | 0.86

Row | Variant | self-cleavage
121 | C2A U14A | 0.509
122 | C2A U14C | 0.397
123 | C2A U14G | 0.697
124 | C2A U19A | 0.308
125 | C2A U19C | 0.38
126 | C2A U19G | 0.381
127 | C2A U21A | 0.351
128 | C2A U21C | 0.402
129 | C2A U21G | 0.291
130 | C2A U24A | 0.929
131 | C2A U24C | 0.733
132 | C2A U24G | 0.644
133 | C2A U28A | 0.394
134 | C2A U28C | 0.417
135 | C2A U28G | 0.308
136 | C2A U32A | 0.784
137 | C2A U32C | 0.632
138 | C2A U32G | 0.469
139 | C2G | 0.455
140 | C2G A6C | 0.196
141 | C2G A6G | 0.292
142 | C2G A6U | 0.321
143 | C2G A23C | 0.294
144 | C2G A23G | 0.318

Row | Variant | self-cleavage
145 | C2G A23U | 0.321
146 | C2G A26C | 0.341
147 | C2G A26G | 0.292
148 | C2G A26U | 0.315
149 | C2G A34C | 0.352
150 | C2G A34G | 0.279
151 | C2G A34U | 0.347
152 | C2G A37C | 0.311
153 | C2G A37G | 0.351
154 | C2G A37U | 0.293
155 | C2G A40C | 0.352
156 | C2G A40G | 0.266
157 | C2G A40U | 0.287
158 | C2G A41C | 0.271
159 | C2G A41G | 0.369
160 | C2G A41U | 0.293
161 | C2G A42C | 0.32
162 | C2G A42G | 0.273
163 | C2G A42U | 0.292
164 | C2G A44C | 0.322
165 | C2G A44G | 0.627
166 | C2G A44U | 0.323
167 | C2G C3A | 0.283
